Test results reported in patent US11827690B2, “ApoC-II mimetic peptides” (THE UNITED STATES OF AMERICA, as represented by the …, priority 2017, dated 2023).
Non-standard residues stand in square brackets, D forms with d. No end group written: not given here. Nle = CCCC[C@H](N)C(=O)O

Key:
[1] = molecular target: T1, LPL inhibited by apoC-III (Bos taurus, UniProt P11151); assay: LPL activation assay with high TG human plasma as substrate and recombinant apoC-III as an inhibitor; type: biochemical; conditions: 50 μM apoC-III added; from about 3.2 μM without; plasma 1:50 dilution
T1 sequence (P11151 29-478): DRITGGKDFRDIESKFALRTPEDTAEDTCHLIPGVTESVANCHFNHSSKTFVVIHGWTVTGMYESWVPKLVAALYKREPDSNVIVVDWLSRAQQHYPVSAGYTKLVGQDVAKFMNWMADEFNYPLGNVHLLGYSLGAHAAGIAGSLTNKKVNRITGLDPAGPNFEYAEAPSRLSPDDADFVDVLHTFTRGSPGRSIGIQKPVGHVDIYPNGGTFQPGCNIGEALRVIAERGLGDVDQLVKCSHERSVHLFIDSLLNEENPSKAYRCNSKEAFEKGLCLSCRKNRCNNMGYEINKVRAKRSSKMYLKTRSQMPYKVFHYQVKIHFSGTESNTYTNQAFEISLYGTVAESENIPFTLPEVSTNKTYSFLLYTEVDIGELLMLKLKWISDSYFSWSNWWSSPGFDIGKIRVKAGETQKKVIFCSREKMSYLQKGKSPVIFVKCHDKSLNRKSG
Method: (§1) LPL activity assay: 10 μL of Intralipid, human plasma sample, or mouse plasma sample was added in each well using repeater pipette. 10 μL (or 15 μL in the wells with no LPL control) of PBS and 10 μL of 1% BSA was added in each well using repeater pipette. 10 μL of peptides were added to corresponding wells in vertical triplicates (lowest concentration is on a left, highest is on the right). The plate was spun down at 1000 RPM for 10 seconds to mix and to remove the solutions from the wall of each well. The plate was put on ice and 5 μL of LPL was added using repeater pipette. The plate was spun down again at 1000 RPM for 10 seconds. The plate was covered and put back on ice for an incubation of 30 min. The plate was then moved to 37° C. and incubated for 1 hour.
(§2) Free fatty acids (NEFA) assay: 45 μL of 5 nmoL standard and 0 nmoL control (0.2% BSA) were added to corresponding wells. 225 μL of reagent A was added in each well using the reagent tray and 12-channel pipette. The plate was incubated for 10 min before 75 μL of reagent B was added to each well using the reagent tray and 12-channel pipette. The plate was not covered due to the high volume. The absorbance at 550 nm and 660 nm was measured.
(§3) LPL assay was performed using Intralipid, high TG human plasma (1:50 dilution), or apoC-III transgenic mouse plasma (1:50 dilution). When Intralipid was used as a substrate, 25 or 50 μM recombinant ApoC-III was added as an inhibitor. When the high TG human plasma was used as a substrate, 25 or 50 μM recombinant ApoC-III was added as an inhibitor with or without pre-incubation at 37° C. for 1 hour. An apoC-II mimetic peptide was added at various concentrations.

[2] = molecular target: T1, LPL inhibited by apoC-III; assay: LPL assay using human apoC-II deficient plasma as substrate with recombinant apoC-III; type: biochemical
Method: as §1, §2, §3

[3] = molecular target: T1, LPL inhibited by apoC-III; assay: LPL activation assay with Intralipid as substrate and recombinant apoC-III as an inhibitor; type: biochemical; conditions: Intralipid substrate, FIG. 31
Method: as §1, §2, §3

[4] = molecular target: T2, bovine LPL (Bos taurus, UniProt P11151); assay: in vitro LPL assay using apoC-II deficient patient sera as substrate; type: biochemical; conditions: for promoting TG hydrolysis in the presence of LPL / efficiency compared with native apoC-II protein: FIG. 6; for efficiency compared with native apoC-II protein: at lower concentrations
T2 sequence (P11151 29-478): T1 sequence (P11151 29-478)
Method: (§4) Preparation of LPL: frozen stock of 10 μL of 0.5 mg/mL bovine LPL was used and diluted 1:100 (10 μL+990 μL of PBS).
(§5) Preparation of 20% Intralipid: 2000 mg/dL TG Intralipid was used to prepare 3 mg/dL TG Intralipid by diluting 1.5 μL of the stock with 998.5 μL PBS, or by diluting the stock 1:10 first and then mixing 15 μL of the diluted stock with 985 μL PBS. When apoC-II deficient human serum was used as a substrate, a frozen 10 μL aliquot of 1711 mg/dL (TG) was diluted by adding 990 μL PBS (1:100 dilution).
(§6) Preparation of free fatty acid (NEFA) assay: NEFA reagents were purchased from Wako Diagnostics, Wako Life Sciences, Inc. Reagent A was prepared by mixing Coloring Reagent A with Solvent A (225 μL per well). Reagent B was prepared by mixing Coloring Reagent B with Solvent B (75 μL per well). 5 nmoL oleic acid standard was prepared by diluting 20 μL of 1 mM oleic acid stock (WAKO NEFA standard solution) with 180 μL of 0.2% BSA.
as §1, §2

[5] = molecular target: T2, bovine LPL; assay: in vitro LPL assay using Intralipid as substrate; type: biochemical; conditions: concentrations of between about 1 nM to about 10 μM, FIG. 7
Method: as §4, §5, §6
LPL activity assay: 10 μL of Intralipid, human plasma sample, or mouse plasma sample was added in each well using repeater pipette. 10 μL (or 15 μL in the wells with no LPL control) of PBS and 10 μL of 1% BSA was added in each well using repeater pipette. […]
Free fatty acids (NEFA) assay: 45 μL of 5 nmoL standard and 0 nmoL control (0.2% BSA) were added to corresponding wells. […] The absorbance at 550 nm and 660 nm was measured.

[6] = system: chylomicrons isolated from human plasma; assay: ApoC-III displacement study in chylomicrons isolated from human plasma; type: binding
Method: VLDL or chylomicrons isolated from human plasma were incubated with an apoC-II mimetic peptide for 1 hour at 37° C. and washed 3 times with PBS using spin filter with 100 kDa cutoff membrane. Supernatants were brought to the original volume with PBS and loaded to 4-12% Bis-TRIS SDS PAGE gel. ApoC-I, apoC-II, apoC-III, and apoE bands were identified by their corresponding size.

[7] = system: VLDL isolated from human plasma; assay: ApoC-III displacement study in VLDL isolated from human plasma; type: binding
Method: VLDL or chylomicrons isolated from human plasma were incubated with an apoC-II mimetic peptide for 1 hour at 37° C. and washed 3 times with PBS using spin filter with 100 kDa cutoff membrane. […] ApoC-I, apoC-II, apoC-III, and apoE bands were identified by their corresponding size.

[8] = molecular target: T2, bovine LPL; assay: in vitro LPL assay using hypertriglyceridemia patient sera as substrate; type: biochemical; conditions: for LPL activity: sera of patients with high levels of apoC-III protein, FIG. 27
Method: as §4, §6, §1, §2

[9] = system: apoC-II knockout mice; assay: plasma lipids of apoC-II knockout mice after peptide injection; type: in vivo
Method: (§7) C57Bl/6 mice (wild-type), apoC-II knockout (apoC-II KO) mice, and apoC-III transgenic mice were used for in vivo study. The C57Bl/6 mice (wild-type) were purchased from Taconic Biosciences Inc. The apoC-II KO mice were created as described in Sakurai et al., J Pharmacol Exp Ther 356:341-353, 2016. The apoC-III transgenic mice were generated by overexpressing human apoC-III in C57Bl/6 mice. See Qu et al., J. Lipid Res. 48:1476-1487, 2007.
Mice were fasted overnight (approximately 12 hours) before the study and 6 hours during the study, the next day. The apoC-II mimetic peptides were synthetically produced and free of biological contamination (not available as FDA approved compounds/treatment). […] W.) administered either subcutaneous injection (S.Q. or S.C.), intraperitoneal injection (I.P.) or intravenous injection (I.V.) (in a sterile, pharmaceutical grade PBS solution at a volume ≤200 μL) as described in Sakurai et al., J Pharmacol Exp Ther 356:341-353, 2016.

[10] = system: C57BL/6 mice (wild-type); assay: post-prandial serum TG in C57BL/6 mice after oral gavage with vegetable oil; type: in vivo; conditions: intraperitoneally injected 30 min before gavage, FIG. 20
Method: as §7
Mice were fasted overnight (approximately 12 hours) before the study and 6 hours during the study, the next day. The apoC-II mimetic peptides were synthetically produced and free of biological contamination (not available as FDA approved compounds/treatment). Peptides were produced and used in sterile conditions and filtered by 0.2 nm filter before injections in a single dose 1-10 μmol/kg body weight (B. W.) administered either subcutaneous injection (S.Q. or S.C.), intraperitoneal injection (I.P.) or intravenous injection (I.V.) (in a sterile, pharmaceutical grade PBS solution at a volume ≤200 μL) as described in Sakurai et al., J Pharmacol Exp Ther 356:341-353, 2016.
In some experiments, each animal received 20% Intralipid (FDA approved, Fresenius Kabi, Uppsala, Sweden) in a single dose either by oral gavage (using special sterile single-use non-toxic animal feeding needles) in a dose 10-20 μL/gram body weight (B.W.) (Tuzcu et al. Drug Chem Toxicol 37: 261-267, 2014; Kusminski et al. Nature Medicine 18: 1539-1549, 2012), or by intraperitoneal injection in a single bolus of 0.1-1.0 mL (Mahadero et al. American J Surgery 164: 45-50, 1992), or by intragastric administration of a dietetic commercially-available liquid oil (food grade vegetable, corn, soy or olive oil) in a single dose 10-20 μL/gram body weight. These oils were a source of TG—when absorbed TG tends to be broken down within 3 h (peak in 30 min) (Kritchevsky Nutritional Biochemistry 6:172-178, 1995). Blood samples (20-30 μL) were obtained from the retro-orbital plexus at time points: −1 h, 0 h, 1 h, 3 h, 6 h and 24 h for measurements of lipids. Mice were returned to metabolic cages after the 6 h time point where the food was put back. Once the study was completed (after 24 hours from the fat administration), mice were euthanized and organs collected.

## apoC-III recombinant protein: recombinant ApoC-III added as an inhibitor in the LPL assay
[1]
  free fatty acid (NEFA) production: about 1.7 μM
[2]; 25 μM apoC-III added, from about 1.5 μM without
  free fatty acid (NEFA) production: about 0.8 μM
[3]
  effect on production of free fatty acid (NEFA): inhibited the production of free fatty acid (NEFA)

## DYLKEVFEKLRDLYSKFTAAnLSTYTGIFTDQVLSVLKGEE (DYLKEVFEKLRDLYSKFTAA[Nle]STYTGIFTDQVLSVLKGEE) [Delta5]
[4]
  promoting TG hydrolysis in the presence of LPL: capable of promoting TG hydrolysis in the presence of LPL
  efficiency compared with native apoC-II protein: worked more efficiently than the native apoC-II protein
[5]
  efficiency compared with native apoC-II protein: worked more efficiently than the native apoC-II protein

## DYLKEVFEKLRDLYEKFTAAnLSTYTGIFTDQVLSVLKGEE (DYLKEVFEKLRDLYEKFTAA[Nle]STYTGIFTDQVLSVLKGEE) [Delta6]
[4]; 10 pM to 10 μM, FIG. 51
  LPL activation compared with full length apoC-II protein: activated LPL in vitro more efficiently than the full length apoC-II protein
[4]
  promoting TG hydrolysis in the presence of LPL: capable of promoting TG hydrolysis in the presence of LPL
  efficiency compared with native apoC-II protein: worked more efficiently than the native apoC-II protein
[4]; concentrations from 100 pM to 10 nM, FIG. 14
  TG hydrolysis: exhibited the ability to promote TG hydrolysis in a dose dependent matter
[6]
  affinity for chylomicrons compared with the apolipoproteins: higher affinity
[7]
  affinity for the VLDL compared with the apolipoproteins: higher affinity
[7]; SDS PAGE
  apoC-III displacement in VLDL: capable of displacing apoC-III
[8]; patient sera TG about 1000 mg/dL to about 1700 mg/dL, FIGS. 15A-D
  LPL activation: activated LPL in vitro
[8]
  LPL activity: increased the LPL activity
[9]; 0.25, 0.5, and 1 μmol/kg of body weight intraperitoneally, all doses, FIG. 23
  plasma TG: rapid and marked reduction of plasma TG
[9]; intraperitoneal injection
  plasma TG: rapid and marked reduction of plasma TG
  total cholesterol level: decrease in the total cholesterol level
[2]; 25 μM apoC-III, FIG. 50
  effect on inhibition of LPL by apoC-III: overcame the inhibitory effect of apoC-III and facilitated lipolysis

## DYLKAVFEKLRDLYSKFTAAnLSTYTGIFTDQVLSVLKGEE (DYLKAVFEKLRDLYSKFTAA[Nle]STYTGIFTDQVLSVLKGEE) [Delta4]
[4]
  promoting TG hydrolysis in the presence of LPL: capable of promoting TG hydrolysis in the presence of LPL
  efficiency compared with native apoC-II protein: worked more efficiently than the native apoC-II protein
[4]; concentrations from 100 pM to 10 μM, FIG. 12
  TG hydrolysis: promoted TG hydrolysis in a dose-dependent manner
[5]
  efficiency compared with native apoC-II protein: worked more efficiently than the native apoC-II protein
[10]
  serum TG increase after vegetable oil gavage: the TG increase was significantly reduced
[8]
  LPL activity: increased the LPL activity
[9]; intraperitoneal injection
  plasma TG: marked reduction of plasma TG
  total cholesterol level: decrease in total cholesterol level
[9]; intraperitoneal injection, FIG. 18
  time of maximum decrease of plasma TG: about 3 hours
[9]; subcutaneous injection
  plasma TG: rapid and marked reduction of plasma TG
  total cholesterol level: decrease in total cholesterol level
